Data reported in patent US20120238493A1 (INDIANA UNIVERSITY RESEARCH AND TECHNOLOGY, published 2012).
Where two headings read alike, the source gives them in different places. *1 amine or outer side, *2 acyl side, *3 side chain or, on linkers, in order; H or OH if unused. Bridges are numbered along the chain shown (N, C = ends). Where no end group is shown, it is not given here. Side-chain parts run from the residue outwards. [ ]: non-standard residue; d: D form. The star is where a group is joined. γGlu = O=C(O)[C@H](CCC(=O)[*:2])N[*:1]; Palmitoyl = CCCCCCCCCCCCCCCC(=O)*; Aib = CC(C)(N)C(=O)O

Experiments:
Assay in all cases: cell-based or functional assay
[1] = target: T1, glucagon receptor (UniProt P47871 26-477, limits assumed)
T1 sequence (P47871 26-477 limits assumed): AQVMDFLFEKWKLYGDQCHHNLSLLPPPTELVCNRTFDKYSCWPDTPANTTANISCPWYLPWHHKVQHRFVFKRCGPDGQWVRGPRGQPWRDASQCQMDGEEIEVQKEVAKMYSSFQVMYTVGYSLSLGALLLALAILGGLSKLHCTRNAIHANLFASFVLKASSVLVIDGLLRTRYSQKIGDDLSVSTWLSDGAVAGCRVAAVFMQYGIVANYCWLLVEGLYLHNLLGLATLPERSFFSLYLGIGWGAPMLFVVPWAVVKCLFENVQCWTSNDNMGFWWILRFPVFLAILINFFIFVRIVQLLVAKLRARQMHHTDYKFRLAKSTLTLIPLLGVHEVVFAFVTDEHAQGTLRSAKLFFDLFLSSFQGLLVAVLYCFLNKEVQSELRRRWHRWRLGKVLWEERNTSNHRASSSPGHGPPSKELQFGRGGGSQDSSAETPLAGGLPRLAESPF

[2] = target: T2, GLP-1 receptor (UniProt P43220 24-463, limits assumed)
[3] = target: T3, GIP receptor (UniProt P48546 22-466, limits assumed)
T3 sequence (looked up): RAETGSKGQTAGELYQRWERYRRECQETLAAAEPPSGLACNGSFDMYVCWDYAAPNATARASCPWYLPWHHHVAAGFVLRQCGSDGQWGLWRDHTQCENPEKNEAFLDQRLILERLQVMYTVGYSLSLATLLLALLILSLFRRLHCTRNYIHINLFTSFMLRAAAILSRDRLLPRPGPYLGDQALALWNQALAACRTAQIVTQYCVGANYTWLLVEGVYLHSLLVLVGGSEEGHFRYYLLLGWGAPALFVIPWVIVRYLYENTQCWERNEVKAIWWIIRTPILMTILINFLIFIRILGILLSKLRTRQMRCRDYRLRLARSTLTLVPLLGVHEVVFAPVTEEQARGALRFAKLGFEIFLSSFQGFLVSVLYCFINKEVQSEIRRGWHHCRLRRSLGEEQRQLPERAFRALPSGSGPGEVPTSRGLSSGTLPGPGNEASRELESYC

[4] = target: T1, glucagon receptor; remark: listed apart in the source
[5] = target: T2, GLP-1 receptor; remark: listed apart in the source
[6] = target: T3, GIP receptor; remark: listed apart in the source
[7] = target: T1, glucagon receptor; remark: listed apart in the source
[8] = target: T2, GLP-1 receptor; remark: listed apart in the source
[9] = target: T3, GIP receptor; remark: listed apart in the source
[10] = target: T1, glucagon receptor; remark: listed apart in the source
[11] = target: T2, GLP-1 receptor; remark: listed apart in the source

B1: Analog No. 37: Aib2, K10acyl, E16, Aib20, E21, L27, D28 (SEQ ID NO: 31) (peptide)
peptide: H[Aib]QGTFTSDK([γGlu-Palmitoyl])SKYLDERRA[Aib]EFVQWLLDT-NH2
modifications: N-terminus assumed
SMILES: CCCCCCCCCCCCCCCC(=O)N[C@@H](CCC(=O)NCCCC[C@H](NC(=O)[C@H](CC(=O)O)NC(=O)[C@H](CO)NC(=O)[C@@H](NC(=O)[C@H](Cc1ccccc1)NC(=O)[C@@H](NC(=O)CNC(=O)[C@H](CCC(N)=O)NC(=O)C(C)(C)NC(=O)[C@@H](N)Cc1c[nH]cn1)[C@@H](C)O)[C@@H](C)O)C(=O)N[C@@H](CO)C(=O)N[C@@H](CCCCN)C(=O)N[C@@H](Cc1ccc(O)cc1)C(=O)N[C@@H](CC(C)C)C(=O)N[C@@H](CC(=O)O)C(=O)N[C@@H](CCC(=O)O)C(=O)N[C@@H](CCCNC(=N)N)C(=O)N[C@@H](CCCNC(=N)N)C(=O)N[C@@H](C)C(=O)NC(C)(C)C(=O)N[C@@H](CCC(=O)O)C(=O)N[C@@H](Cc1ccccc1)C(=O)N[C@H](C(=O)N[C@@H](CCC(N)=O)C(=O)N[C@@H](Cc1c[nH]c2ccccc12)C(=O)N[C@@H](CC(C)C)C(=O)N[C@@H](CC(C)C)C(=O)N[C@@H](CC(=O)O)C(=O)N[C@H](C(N)=O)[C@@H](C)O)C(C)C)C(=O)O
[1]
  EC50 (cAMP reporter): 8 pM
[2]
  EC50 (cAMP reporter): 4.4 pM
[3]
  EC50 (cAMP reporter): 8 pM
[4]
  EC50 (cAMP reporter): 8 pM
[5]
  EC50 (cAMP reporter): 4.4 pM
[6]
  EC50 (cAMP reporter): 8 pM

B2: mt-404 (SEQ ID NO: 13) (peptide)
peptide: HSQGTFISDYSKALDEIHQKEFIAWLMNT-NH2
modifications: lactam 16-20; not fully specified (residue 2); also: AIB at position 2 and position 20 (given S and K), any further modification only
[7]
  EC50 (cAMP reporter): 108 pM
  relative activity (to native hormone): 70.8%
[8]
  EC50 (cAMP reporter): 6 pM
  relative activity (to native hormone): 258%
[9]
  EC50 (cAMP reporter): 32.7 pM
  relative activity (to native hormone): 50.6%

B3: peptide of SEQ ID NO: 90 (peptide)
peptide: H[Aib]QGTFTSDK([γGlu-γGlu-Palmitoyl])SKYLDERAAQDFVQWLLDGGPSSGAPPPS-NH2
modifications: N-terminus assumed
SMILES: CCCCCCCCCCCCCCCC(=O)N[C@@H](CCC(=O)N[C@@H](CCC(=O)NCCCC[C@H](NC(=O)[C@H](CC(=O)O)NC(=O)[C@H](CO)NC(=O)[C@@H](NC(=O)[C@H](Cc1ccccc1)NC(=O)[C@@H](NC(=O)CNC(=O)[C@H](CCC(N)=O)NC(=O)C(C)(C)NC(=O)[C@@H](N)Cc1c[nH]cn1)[C@@H](C)O)[C@@H](C)O)C(=O)N[C@@H](CO)C(=O)N[C@@H](CCCCN)C(=O)N[C@@H](Cc1ccc(O)cc1)C(=O)N[C@@H](CC(C)C)C(=O)N[C@@H](CC(=O)O)C(=O)N[C@@H](CCC(=O)O)C(=O)N[C@@H](CCCNC(=N)N)C(=O)N[C@@H](C)C(=O)N[C@@H](C)C(=O)N[C@@H](CCC(N)=O)C(=O)N[C@@H](CC(=O)O)C(=O)N[C@@H](Cc1ccccc1)C(=O)N[C@H](C(=O)N[C@@H](CCC(N)=O)C(=O)N[C@@H](Cc1c[nH]c2ccccc12)C(=O)N[C@@H](CC(C)C)C(=O)N[C@@H](CC(C)C)C(=O)N[C@@H](CC(=O)O)C(=O)NCC(=O)NCC(=O)N1CCC[C@H]1C(=O)N[C@@H](CO)C(=O)N[C@@H](CO)C(=O)NCC(=O)N[C@@H](C)C(=O)N1CCC[C@H]1C(=O)N1CCC[C@H]1C(=O)N1CCC[C@H]1C(=O)N[C@@H](CO)C(N)=O)C(C)C)C(=O)O)C(=O)O
[4]
  EC50 (cAMP reporter): 5.6 pM
[5]
  EC50 (cAMP reporter): 2.7 pM
[6]
  EC50 (cAMP reporter): 17 pM

B4: peptide of SEQ ID NO: 91 (peptide)
peptide: Y[Aib]QGTFTSDK([γGlu-γGlu-Palmitoyl])SIYLDKQAA[Aib]EFVNWLLDGGPSSGAPPPS-NH2
modifications: N-terminus assumed
SMILES: CCCCCCCCCCCCCCCC(=O)N[C@@H](CCC(=O)N[C@@H](CCC(=O)NCCCC[C@H](NC(=O)[C@H](CC(=O)O)NC(=O)[C@H](CO)NC(=O)[C@@H](NC(=O)[C@H](Cc1ccccc1)NC(=O)[C@@H](NC(=O)CNC(=O)[C@H](CCC(N)=O)NC(=O)C(C)(C)NC(=O)[C@@H](N)Cc1ccc(O)cc1)[C@@H](C)O)[C@@H](C)O)C(=O)N[C@@H](CO)C(=O)N[C@H](C(=O)N[C@@H](Cc1ccc(O)cc1)C(=O)N[C@@H](CC(C)C)C(=O)N[C@@H](CC(=O)O)C(=O)N[C@@H](CCCCN)C(=O)N[C@@H](CCC(N)=O)C(=O)N[C@@H](C)C(=O)N[C@@H](C)C(=O)NC(C)(C)C(=O)N[C@@H](CCC(=O)O)C(=O)N[C@@H](Cc1ccccc1)C(=O)N[C@H](C(=O)N[C@@H](CC(N)=O)C(=O)N[C@@H](Cc1c[nH]c2ccccc12)C(=O)N[C@@H](CC(C)C)C(=O)N[C@@H](CC(C)C)C(=O)N[C@@H](CC(=O)O)C(=O)NCC(=O)NCC(=O)N1CCC[C@H]1C(=O)N[C@@H](CO)C(=O)N[C@@H](CO)C(=O)NCC(=O)N[C@@H](C)C(=O)N1CCC[C@H]1C(=O)N1CCC[C@H]1C(=O)N1CCC[C@H]1C(=O)N[C@@H](CO)C(N)=O)C(C)C)[C@@H](C)CC)C(=O)O)C(=O)O
[4]
  EC50 (cAMP reporter): 73 pM
[5]
  EC50 (cAMP reporter): 8 pM
[6]
  EC50 (cAMP reporter): 5 pM

## Y[Aib]QGTFTSDYSKYLDEIHQKDFVNWLLAQ-NH2 (not fully specified (residue 20)) [mt-405 (SEQ ID NO: 14)]
[7]
  EC50 (cAMP reporter): 9.6 pM
  relative activity (to native hormone): 797%
[8]
  EC50 (cAMP reporter): 2.2 pM
  relative activity (to native hormone): 717%
[9]
  EC50 (cAMP reporter): 3.9 pM
  relative activity (to native hormone): 425%

B5: peptide of SEQ ID NO: 92 (peptide)
peptide: Y[Aib]QGTFTSDK([γGlu-γGlu-Palmitoyl])SIYLDKQAA[Aib]EFVNWLLDT-NH2
modifications: N-terminus assumed
SMILES: CCCCCCCCCCCCCCCC(=O)N[C@@H](CCC(=O)N[C@@H](CCC(=O)NCCCC[C@H](NC(=O)[C@H](CC(=O)O)NC(=O)[C@H](CO)NC(=O)[C@@H](NC(=O)[C@H](Cc1ccccc1)NC(=O)[C@@H](NC(=O)CNC(=O)[C@H](CCC(N)=O)NC(=O)C(C)(C)NC(=O)[C@@H](N)Cc1ccc(O)cc1)[C@@H](C)O)[C@@H](C)O)C(=O)N[C@@H](CO)C(=O)N[C@H](C(=O)N[C@@H](Cc1ccc(O)cc1)C(=O)N[C@@H](CC(C)C)C(=O)N[C@@H](CC(=O)O)C(=O)N[C@@H](CCCCN)C(=O)N[C@@H](CCC(N)=O)C(=O)N[C@@H](C)C(=O)N[C@@H](C)C(=O)NC(C)(C)C(=O)N[C@@H](CCC(=O)O)C(=O)N[C@@H](Cc1ccccc1)C(=O)N[C@H](C(=O)N[C@@H](CC(N)=O)C(=O)N[C@@H](Cc1c[nH]c2ccccc12)C(=O)N[C@@H](CC(C)C)C(=O)N[C@@H](CC(C)C)C(=O)N[C@@H](CC(=O)O)C(=O)N[C@H](C(N)=O)[C@@H](C)O)C(C)C)[C@@H](C)CC)C(=O)O)C(=O)O
[4]
  EC50 (cAMP reporter): 10.5 pM
[5]
  EC50 (cAMP reporter): 3.1 pM
[6]
  EC50 (cAMP reporter): 21 pM

## H[Aib]QGTFTSDYSKYLDERAAQDFVQWLLDGGPSSGAPPPSY(Palmitoyl)G-NH2 (also: Y40 O-2palmitic acid, exact structure not given here) [peptide of SEQ ID NO: 212]
[10]
  EC50 (cAMP reporter): 7 pM
[11]
  EC50 (cAMP reporter): 4 pM
